Molecular target: recombinant S trimer protein of the WT SARS-CoV-2 strain (SARS-CoV-2 WT (Wuhan-Hu-1), UniProt P0DTC2, stabilised)
Experiment: ELISA

B1: MAb S3H3 (IgG) (antibody, V domains shown)
VH: QVQLQQPGAELVRPGASVKLSCKASGYSFTRFWMNWVKQRPGQGLEWIGMIHPSDSETRLNQKFKDKATLTVDKSSTTAYMQLSSPTSEDSAVYYCARKDYDYDAWFAYWGQGTLVTVSA
VL: DIVLTQSPASLAVSLGQRATISCRASKSVSASVYSYMHWYQQKPGQPPKLLIYLASSLESGVPARFSGSGSGTDFTLNIHPVEEEDAATYYCHHSRELPPAFGGGTKLEIK
  binding result: binds

Source: article doi:10.1101/2022.01.10.475532 (bioRxiv, 2022)
